Measured values: the supplement of paper PMC12338614

B1: library; numbered along this chain (parent)
chain: MEVVDPQQLGMFTEGELMSVGMDTFIHRIDSTEVIYQPRRKRAKLIGKYLMGDLLGEGSYGKVKEVLDSETLCRRAVKILKKKKLRRIPNGEANVKKEIQLLRRLRHKNVIQLVDVLYNEEKQKMYMVMEYCVCGMQEMLDSVPEKRFPVCQAHGYFCQLIDGLEYLHSQGIVHKDIKPGNLLLTTGGTLKISDLGVAEALHPFAADDTCRTSQGSPAFQPPEIANGLDTFSGFKVDIWSAGVTLYNITTGLYPFEGDNIYKLFENIGKGSYAIPGDCGPPLSDLLKGMLEYEPAKRFSIRQIRQHSWFRKKHPPAEAPVPIPPSPDTKDRWRSMTVVPYLEDLHGADEDEDLFDIEDDIIYTQDFTVPGQVPEEEASHNGQRRGLPKAVCMNGTEAAQLSTKSRAEGRAPNPARKACSASSKIRRLSACKQQ

Variants of: B1
Assay: STK11 functional score (HeLa growth suppression), rescaled enrichment; synonymous median = 1, nonsense median = 0 (normalised score)
Conditions: with HeLa; variant type: missense
In short: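 The functional score takes the post/pre-selection log ratio, corrects it to wild type, rescales it to synonymous and nonsense medians, and merges it over codons and replicate transfections, with error from bootstrapping. Counts came from tiled gDNA amplicons sequenced on NextSeq (~2 million reads per tile). The libraries were POPCode codon-randomised, codon-optimised STK11 integrated by Bxb1 at an AAVS1 landing pad in HeLa, three regions with three transfections each.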

STK11 functional score, by site and new letter:
D355: G 1.63; S 1.48; Q 1.28; H 1.11; C 1.31; E 1.02; I 1.18; R 1.43; P 1.53; A 0.938; V 1.14; L 1.58; W 1.57
D348: L 1.3; H 1.18; A 1.54; T 1.57; I 1.41; W 1.58; G 1.26; V 0.78; N 0.723; Y 0.868; R 1.2; M 0.896; P 1.59; Q 1.54; S 1.59
I356: A 1.5; F 1.15; S 0.889; D 1.27; T 1.58; E 1.62; P 1.6; N 1.45; W 1.66; V 1.46; L 1.15; M 1.21; Q 1.58; Y 1.12; G 1.45; R 1.19; H 1.51
F354: H 1.34; S 1.34; T 0.37; P 1.42; M 1.51; L 1.12; W 0.138; R 1.53; I 1.32; K 1.57; G 1.09; Y 1.31; V 1.3; N 1.6; E 1.45; A 1.54; Q 1.61; C 0.742
E349: Y 0.952; I 1.05; W 1.14; L 1.47; T 1.51; D 1.35; R 1.37; N 1.48; P 1.41; S 1.38; M 1.33; C 1.1; G 0.983; A 1.5; F 0.989; Q 1.16; V 1.16
D352: K 1.55; N 1.09; S 1.57; E 1.15; A 0.984; M 1.2; H 1.27; V 1.12; Y 0.953; W 0.86; P 1.6; C 1.34; Q 0.828; L 1.62; R 1.61; T 1.57
A347: Y 1.34; V 1.23; W 1.59
E357: M 1.52; A 1.12; G 1.47; I 1.56; L 1.54; F 0.965; D 0.56; W 0.957; Y 1.39; T 1.56; R 1.36; H 1.6; V 1.33; Q 1.13; S 1.52; P 1.58; C 1.36
D358: C 1.53; A 1.27
D350: T 1.47; R 1.61; H 1.27; Y 1.45; G 1.29; W 1.6; S 0.53; V 1.19; L 1.6; Q 1.49; E 1.25; F 0.0925; N 1.07; M 1.65; C 1.51; I 1.25; P 1.48; A 0.867
E351: Q 1.28; S 1.4; G 1.33; T 1.52; C 1.06; Y 1.23; D 0.951; F 1.19; M 0.992; P 1.55; L 1.43; I 1.27; R 1.26; H 0.374; V 1.36; W 1.48
L353: N 1.56; W 1.12; V 1.42; P 1.12; Y 1.4; A 1.56; F 1.27; S 1.6; H 1.4; T 1.45; R 1.57; C 1.17; I 1.19; D 1.61; G 1.52
